Data on one molecule can be found in paper PMC5887453 (Nucleic Acids Research, 2018).

In this assay the target is T1, Pyrococcus horikoshii elongation factor 2 (PhoEF-2), wild type (Pyrococcus horikoshii, UniProt O59521 1-732).
T1 sequence (looked up): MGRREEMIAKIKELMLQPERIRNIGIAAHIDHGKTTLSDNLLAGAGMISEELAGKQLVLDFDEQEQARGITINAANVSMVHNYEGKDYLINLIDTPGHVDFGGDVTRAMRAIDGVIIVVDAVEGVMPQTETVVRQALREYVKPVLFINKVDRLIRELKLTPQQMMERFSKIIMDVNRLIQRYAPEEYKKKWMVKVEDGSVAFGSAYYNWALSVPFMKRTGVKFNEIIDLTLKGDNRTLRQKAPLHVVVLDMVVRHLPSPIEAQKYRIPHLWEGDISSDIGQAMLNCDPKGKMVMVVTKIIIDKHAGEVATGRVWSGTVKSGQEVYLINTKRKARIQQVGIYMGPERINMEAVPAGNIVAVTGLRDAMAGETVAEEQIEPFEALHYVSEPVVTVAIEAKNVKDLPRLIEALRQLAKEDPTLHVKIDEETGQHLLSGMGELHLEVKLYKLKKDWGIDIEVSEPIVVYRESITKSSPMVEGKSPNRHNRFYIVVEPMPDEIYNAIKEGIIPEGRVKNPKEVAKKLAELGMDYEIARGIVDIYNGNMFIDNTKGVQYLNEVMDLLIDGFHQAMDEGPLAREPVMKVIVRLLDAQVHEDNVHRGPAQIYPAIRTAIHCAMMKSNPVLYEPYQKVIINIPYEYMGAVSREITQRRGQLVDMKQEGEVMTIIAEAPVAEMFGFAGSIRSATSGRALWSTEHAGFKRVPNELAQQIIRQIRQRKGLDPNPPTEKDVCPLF
Description: crystal structure.

EALAGLSALFG [P1C11, peptide of the 11 C-terminal amino acids of P. horikoshii P1 (E98-G108)]: the binding result is given as “binds”.
